Experiments:
[1] = target: recombinant nucleoprotein (NP) of influenza A/Brisbane/10/2007 (H3N2) (Influenza A virus A/Brisbane/10/2007 …, UniProt P03466, strain); test: BLI
[2] = target: NP WT 1–498 (deletion library, wild type) (Influenza A virus A/California/07/2009 …, UniProt C6KQ05, strain); test: far-Western, overlay or dot blot
[3] = target: recombinant NP of influenza A/PR/8/34 (H1N1) purified from bacteria (Influenza A virus A/Puerto Rico/8/1934 …, UniProt P03466); test: far-Western, overlay or dot blot
[4] = target: NP in H1N1 viral lysate (A/Puerto Rico/8/34) (Influenza A virus A/Puerto Rico/8/1934 …, UniProt P03466); test: far-Western, overlay or dot blot

B1: anti-NP mouse monoclonal antibody HB65 (antibody, V domains shown)
VH: EVKLVESGGALVNPGGSLKLSCAASGFIFSSYAMSWIRQTPEKRLEWVASTSGGGTTYYLDSVRGRFTISRDNARRILYLQMTSLRSEDTAIYFCGRDGNWFTSWGQGTLVTVSI
VL: NIVMTQSPKSMSMSVGERVTLTCKASENVVTYVSWYQQKPEQSPKLLIYGASNRYTGVPDRFTGSGSATDFTLTISSVQAEDLADYHCGQGYSYPYTFGGGTKLEIK
Kd [1]: 120 ± 21 nM
binding result [2]: binds
binding result [3]: binds
binding result [4]: binds

— article PMC11994974 (Virus Research, 2025)
